Test results as given in the RNAGym collection of RNA variant scans (doi:10.7554/elife.90254).

B1: LINE1-mini (parent)
chain: GGCAGAGCUCAACACAGCGUGGCAAAGUGGCUGUGGCUAGACUGCC

Variants of: B1
Assay: self-cleavage, relative activity (ratio to wild type); higher = more cleavage; in vitro, sequencing; the parent is a self-cleaving ribozyme

Row | Variant | self-cleavage
1 | C37U U43C | 0.06
2 | C37U U43G | 0.11
3 | C37U U43A | 0.11
4 | G36U C37A | 0.05
5 | G36U C37G | 0.05
6 | G36U C37U | 0.03
7 | C37U C42U | 0.1
8 | C37U C42G | 0.03
9 | C37U C42A | 0.12
10 | G36C U43G | 0
11 | G36C U43C | 0.04
12 | G36C U43A | 0.08
13 | C37U G44U | 0.25
14 | C37U G44C | 0.05
15 | C37U G44A | 0.1
16 | C37U A41U | 0.06
17 | C37U A41C | 0.02
18 | C37U A41G | 0.04
19 | U38C | 0.6
20 | U38A | 0.47
21 | U38G | 0.03

Row | Variant | self-cleavage
22 | G40U C45A | 0.09
23 | G40U C45G | 0.14
24 | G40U C45U | 0.15
25 | A39U | 0.8
26 | A39G | 0.1
27 | A39C | 0.26
28 | C37U | 0.07
29 | C37A | 0.08
30 | C37G | 0.05
31 | G36C G44C | 0.11
32 | G36C G44U | 0.08
33 | G36C G44A | 0.04
34 | A39U C45U | 0.85
35 | A39U C45G | 0.24
36 | A39U C45A | 0.18
37 | A39G G40U | 0.14
38 | A39G G40A | 0.05
39 | A39G G40C | 0.08
40 | G36U U38A | 0.05
41 | G36U U38C | 0.11
42 | G36U U38G | 0.02

Row | Variant | self-cleavage
43 | C37A U38C | 0.03
44 | C37A U38A | 0.04
45 | C37A U38G | 0.03
46 | U38G C45U | 0.05
47 | U38G C45A | 0.04
48 | U38G C45G | 0.05
49 | G36U A39G | 0.05
50 | G36U A39C | 0.08
51 | G36U A39U | 0.07
52 | A39G U43C | 0.04
53 | A39G U43A | 0.04
54 | A39G U43G | 0.12
55 | G36U C45U | 0.11
56 | G36U C45A | 0.15
57 | G36U C45G | 0.12
58 | C37U G40A | 0.14
59 | C37U G40U | 0.16
60 | C37U G40C | 0.24
61 | A39U A41U | 0.67
62 | A39U A41C | 0.13
63 | A39U A41G | 0.14

Row | Variant | self-cleavage
64 | G36U A41C | 0.05
65 | G36U A41U | 0.1
66 | G36U A41G | 0.15
67 | G36U U43G | 0.1
68 | G36U U43A | 0.04
69 | G36U U43C | 0.06
70 | G40C U43G | 0.41
71 | G40C U43C | 0.07
72 | G40C U43A | 0.06
73 | U38A C46U | 0.3
74 | U38A C46A | 0.35
75 | U38A C46G | 0.38
76 | U38C G40A | 0.07
77 | U38C G40C | 0.06
78 | U38C G40U | 0.1
79 | A39C C42U | 0.05
80 | A39C C42G | 0.06
81 | A39C C42A | 0.1
82 | G40C A41C | 0.09
83 | G40C A41G | 0.07
